Source: patent publication US20240010684A1 (Bayer, published 2024)
*1 amine or outer side, *2 acyl side, *3 side chain or, on linkers, in order; H or OH if unused. Bridges are numbered along the chain shown (N, C = ends). Where no end group is shown, it is not given here. [ ]: non-standard residue; d: D form. TTDS = 1,13-diamino-4,7,10-trioxatridecan-succinamic acid, O=C(CCC(=O)[*:2])NCCCOCCOCCOCCCN[*:1]; Oic = O=C(O)[C@@H]1C[C@@H]2CCCC[C@@H]2N1; Trx = NC[C@H]1CC[C@H](C(=O)O)CC1; tBuAla = CC(C)(C)C[C@H](N)C(=O)O; PEG4 = NCCOCCOCCOCCOCCC(=O)O; Pen = CC(C)(S)[C@H](N)C(=O)O; Orn = NCCC[C@H](N)C(=O)O; Dab = NCC[C@H](N)C(=O)O; Dap = NC[C@H](N)C(=O)O; Ahx = NCCCCCC(=O)O; Sar = CNCC(=O)O

T1: recombinant human MASP1 (amino acids 297-699, C-terminal His Tag) (human, UniProt P48740 297-699)
T1 sequence: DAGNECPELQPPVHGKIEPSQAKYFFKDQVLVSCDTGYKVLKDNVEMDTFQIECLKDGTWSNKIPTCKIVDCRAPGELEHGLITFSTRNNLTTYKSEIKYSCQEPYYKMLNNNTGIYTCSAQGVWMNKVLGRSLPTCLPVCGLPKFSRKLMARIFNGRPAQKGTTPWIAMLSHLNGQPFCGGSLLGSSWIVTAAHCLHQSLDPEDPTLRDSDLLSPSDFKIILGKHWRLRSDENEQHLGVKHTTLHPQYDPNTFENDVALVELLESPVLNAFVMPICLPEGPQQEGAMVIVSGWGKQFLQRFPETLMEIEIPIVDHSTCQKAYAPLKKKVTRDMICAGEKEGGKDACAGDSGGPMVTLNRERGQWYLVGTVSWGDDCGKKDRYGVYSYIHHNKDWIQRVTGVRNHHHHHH


Columns and labels:
[1] = target: T1, recombinant human MASP1 (amino acids …); assay: cell-based or functional assay
[2] = target: recombinant human MASP2 (amino acids 297-686, C-terminal His Tag) (human, UniProt O00187 297-686); assay: cell-based or functional assay
Chain of recombinant human MASP2 (amino acids 297-686, C-terminal His Tag) (O00187 other isoform, or with tags, fused parts or gaps limits assumed): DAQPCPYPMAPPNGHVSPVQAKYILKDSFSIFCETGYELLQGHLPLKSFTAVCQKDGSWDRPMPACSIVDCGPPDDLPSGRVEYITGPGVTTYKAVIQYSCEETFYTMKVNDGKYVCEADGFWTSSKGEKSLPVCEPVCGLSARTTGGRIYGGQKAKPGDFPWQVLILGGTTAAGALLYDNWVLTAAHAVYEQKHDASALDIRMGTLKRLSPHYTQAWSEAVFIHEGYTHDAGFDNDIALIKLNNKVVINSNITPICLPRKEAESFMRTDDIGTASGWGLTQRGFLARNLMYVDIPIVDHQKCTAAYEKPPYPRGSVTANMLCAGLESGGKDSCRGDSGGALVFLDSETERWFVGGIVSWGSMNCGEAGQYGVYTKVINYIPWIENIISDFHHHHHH

Row | human MASP1 IC50 [1] | human MASP2 IC50 [2] | Binder
1 | 9.8 nM | 110 nM | EGICSRSLP[Oic]I[Pen]IPK-NH2 (lactam 1-15; disulfide 4-12; also: TFA salt) [Example 90: E++GIC+SRSLP-(Oic)-I-(Pen)+-IPK++-NH2]
2 | 10 nM | 7 nM | [dK]ICSRS[tBuAla]PPI[Pen]I (lactam 1-C; disulfide 3-11; also: HCl salt) [Example 78: k++-IC+SRS-((tBu)A)-PPI-(Pen)+-I** (HCl Salt)]
3 | 55 nM | 110 nM | [Dap]GGICSRSLPPICIPD (lactam 1-C; disulfide 5-13; also: TFA salt) [Example 20: (Dap)++-GGIC+SRSLPPIC+IPD**]
4 | 100 nM | 110 nM | cyclo([Ahx]ICSRSLP[Oic]ICI) (disulfide 3-11; also: TFA salt) [Example 95: (Ahx)**-IC+SRSLP-(Oic)-IC+I**]
5 | 23 nM | 400 nM | cyclo([Orn]GICSRS[tBuAla]PPI[Pen]IP) (disulfide 4-12; also: TFA salt) [Example 96: (Orn)**-GIC+SRS-((tBu)A)-PPI-(Pen)+-IP**]
6 | 170 nM | 240 nM | cyclo([PEG4]GICSRSLPPICIPD) (disulfide 4-12; also: TFA salt) [Example 14: (PEG3(16 atoms))**-GIC+SRSLPPIC+IPD**]
7 | 11 nM | 210 nM | [Ahx][Sar]AICSRSLP[Oic]I[Pen]IPE-NH2 (disulfide 5-13; lactam N-16; also: TFA salt) [Example 77: (Ahx)**-((N-Me)G)-AIC+SRSLP-(Oic)-I-(Pen)+-IPE++-NH2]
8 | 49 nM | 210 nM | cyclo([dA]GGICSRSLPPICIPD) (disulfide 5-13; also: TFA salt) [Example 19: a**GGIC+SRSLPPIC+IPD**]
9 | 190 nM | 91 nM | KGICSRSLPPICIPD (lactam 1-C; disulfide 4-12; also: TFA salt) [Example 22: K++GIC+SRSLPPIC+IPD**]
10 | 8.1 nM | 22 nM | [Orn]ICSRS[tBuAla]PPI[Pen]I (lactam 1-C; disulfide 3-11; also: TFA salt) [Example 66: (Orn)++-IC+SRS-((tBu)A)-PPI-(Pen)+-I**]
11 | 14 nM | 160 nM | [Ahx]AICSRSLP[Oic]I[Pen]IPE-NH2 (disulfide 4-12; lactam N-15; also: TFA salt) [Example 74: (Ahx)**-AIC+SRSLP-(Oic)-I-(Pen)+-IPE++-NH2]

The next lines start with the binder.

Row | Binder | human MASP1 IC50 [1] | human MASP2 IC50 [2]
12 | [Ahx]GICSRSLP[Oic]I[Pen]IPE-NH2 (disulfide 4-12; lactam N-15; also: TFA salt) [Example 83: (Ahx)**-GIC+SRSLP-(Oic)-I-(Pen)+-IPE++-NH2] | 18 nM | 91 nM
13 | cyclo([Orn]GICSRS[tBuAla]PPI[Pen]I) (disulfide 4-12; also: TFA salt) [Example 65: (Orn)**-GIC+SRS-((tBu)A)-PPI-(Pen)+-I**] | 49 nM | 540 nM
14 | G[Trx]GICSRS[tBuAla]PPI[Pen]IPD-NH2 (disulfide 5-13; lactam N-16; also: TFA salt) [Example 62: G**-(TXA)-GIC+SRS-((tBu)A)-PPI-(Pen)+-IPD++-NH2] | 22 nM | 540 nM
15 | EGICSRSLP[Oic]I[Pen]IPDK-NH2 (lactam 1-16; disulfide 4-12; also: TFA salt) [Example 91: E++GIC+SRSLP-(Oic)-I-(Pen)+-IPDK++-NH2] | 29 nM | 71 nM
16 | [Dap][Dap]ICSRSLP[Oic]I[Pen]IP (lactam 1-C; disulfide 4-12; also: TFA salt) [Example 86: (Dap)++-(Dap)-IC+SRSLP-(Oic)-I-(Pen)+-IP**] | 27 nM | 1000 nM
17 | [Ahx]GAICSRSLP[Oic]I[Pen]IPE-NH2 (disulfide 5-13; lactam N-16; also: TFA salt) [Example 82: (Ahx)**-GAIC+SRSLP-(Oic)-I-(Pen)+-IPE++-NH2] | 69 nM | 700 nM
18 | cyclo([TTDS]AICSRS[tBuAla]PPI[Pen]IPD) (disulfide 4-12; also: TFA salt) [Example 63: (TTDS)**-AIC+SRS-((tBu)A)-PPI-(Pen)+-IPD**] | 28 nM | 170 nM
19 | cyclo([Dap][Dap]GICSRSLPPICIPD) (disulfide 5-13; also: TFA salt) [Example 23: (Dap)**-(Dap)-GIC+SRSLPPIC+IPD**] | 180 nM | 20 nM
20 | [Orn]AICSRS[tBuAla]PPI[Pen]IPD-NH2 (lactam 1-15; disulfide 4-12; also: TFA salt) [Example 61: (Orn)++-AIC+SRS-((tBu)A)-PPI-(Pen)+-IPD++-NH2] | 3.1 nM | 310 nM
21 | cyclo([Dap][Dab]ICSRS[tBuAla]PPI[Pen]I) (disulfide 4-12; also: TFA salt) [Example 73: (Dap)**-(Dab)-IC+SRS-((tBu)A)-PPI-(Pen)+-I**] | 42 nM | 430 nM
22 | [Orn]ICSRS[tBuAla]PPI[Pen]IP (lactam 1-C; disulfide 3-11; also: TFA salt) [Example 71: (Orn)++-IC+SRS-((tBu)A)-PPI-(Pen)+-IP**] | 21 nM | 24 nM
23 | [3‑azido‑L‑alanine]GAICSRS[tBuAla]PPICIP[L‑propargylglycine]-NH2 (triazole 1-16; disulfide 5-13; also: TFA salt) | 18 nM | 230 nM
24 | cyclo([Dap]ICSRSLP[Oic]I[Pen]IP) (disulfide 3-11; also: TFA salt) [Example 87: (Dap)**-IC+SRSLP-(Oic)-I-(Pen)+-IP**] | 46 nM | 700 nM
25 | cyclo(GSGICSRSLPPICIPDS) (disulfide 5-13; not fully specified; printed as G**SGIC+SRSLPPIC+IPDS**; also: TFA salt) [Example 21: G**SGIC+SRSLPPIC+IPDS**] | 170 nM | 120 nM
26 | KICSRS[tBuAla]PPI[Pen]I (lactam 1-C; disulfide 3-11; also: TFA salt) [Example 67: K++-IC+SRS-((tBu)A)-PPI-(Pen)+-I**] | 3.25 nM | 150 nM
27 | [Dap]ICSRSLP[Oic]I[Pen]IP (lactam 1-C; disulfide 3-11; also: TFA salt) [Example 85: (Dap)++-IC+SRSLP-(Oic)-I-(Pen)+-IP**] | 1000 nM | 1000 nM
28 | cyclo([Dap][Dap]ICSRS[tBuAla]PPI[Pen]IP) (disulfide 4-12; also: TFA salt) [Example 97: (Dap)**-(Dap)-IC+SRS-((tBu)A)-PPI-(Pen)+-IP**] | 5 nM | 760 nM
29 | cyclo(ICSRS[tBuAla]PPI[Pen]IP) (disulfide 2-10; also: HCl salt) [Example 88: I**C+SRS-((tBu)A)-PPI-(Pen)+-IP** (HCl Salt)] | 1000 nM | 1000 nM
30 | [dK]ICSRS[tBuAla]PPI[Pen]I (lactam 1-C; disulfide 3-11; also: TFA salt) [Example 80: k++-IC+SRS-((tBu)A)-PPI-(Pen)+-I**] | 11 nM | 6.8 nM
31 | cyclo(GGICSRSLPPICIPD) (disulfide 4-12; also: TFA salt) [Example 15: G**GIC+SRSLPPIC+IPD**] | 120 nM | 300 nM
32 | [Ahx][dA]ICSRSLP[Oic]I[Pen]IPE-NH2 (disulfide 4-12; lactam N-15; also: HCl salt) [Example 79: (Ahx)**-aIC+SRSLP-(Oic)-I-(Pen)+-IPE++-NH2 (HCl Salt)] | 22 nM | 45 nM
33 | cyclo(AGGICSRSLPPICIPD) (disulfide 5-13; also: TFA salt) [Example 18: A**GGIC+SRSLPPIC+IPD**] | 50 nM | 15 nM
34 | cyclo([Ahx]GICSRSLPPICIP[dD]) (disulfide 4-12; also: TFA salt) [Example 16: (Ahx)**-GIC+SRSLPPIC+IPd**] | 150 nM | 370 nM
35 | cyclo(AGGICSRSLPPICIP[dD]) (disulfide 5-13; also: TFA salt) [Example 17: A**GGIC+SRSLPPIC+IPd**] | 26 nM | 88 nM
36 | [Ahx]G[dA]ICSRSLP[Oic]I[Pen]IPE-NH2 (disulfide 5-13; lactam N-16; also: TFA salt) [Example 84: (Ahx)**-GaIC+SRSLP-(Oic)-I-(Pen)+-IPE++-NH2] | 15 nM | 87 nM
37 | cyclo([Ahx]GICSRSLPPICIPD) (disulfide 4-12; also: HCl salt) [Example 94: (Ahx)**-GIC+SRSLPPIC+IPD** (HCl Salt)] | 120 nM | 130 nM
